The data set deals with the molecule itself. As to the kind of experiment: SDS-PAGE of undigested full-length DIG-177 (self-association).

Consider one protein from patent US20200184403A1 (DOW AGROSCIENCES, published 2020).

Protocol: SDS-PAGE was run following the protocol NuPAGE Bis-Tris gels from Invitrogen Life technologies (Protocol Pub. No. MAN0007894 Rev. A.0, Ref.2). Briefly, samples were mixed with denaturing sample buffer (Invitrogen) plus 5 mM DTT (for reducing PAGE) or minus DTT (for non reducing PAGE) and heated at 95° C. for 5 minutes. The samples were loaded onto Invitrogen Bis/Tris gel. The gel was run with MOPS or MES running buffer under 200 V for ˜43 minutes. The gel was stained with Coomassie blue staining solution (Bio-Rad) for 30 minutes and de-stained with de-staining solution (7% Acetic acid and 5% Methanol in water) until the background cleared.

B1: DIG-177 (full length wild type Cry6Aa) (other)
chain: MIIDSKTTLPRHSLIHTIKLNSNKKYGPGDMTNGNQFIISKQEWATIGAYIQTGLGLPVNEQQLRTHVNLSQDISIPSDFSQLYDVYCSDKTSAEWWNKNLYPLIIKSANDIASYGFKVAGDPSIKKDGYFKKLQDELDNIVDNNSDDDAIAKAIKDFKARCGILIKEAKQYEEAAKNIVTSLDQFLHGDQKKLEGVINIQKRLKEVQTALNQAHGESSPAHKELLEKVKNLKTTLERTIKAEQDLEKKVEYSFLLGPLLGFVVYEILENTAVQHIKNQIDEIKKQLDSAQHDLDRDVKIIGMLNSINTDIDNLYSQGQEAIKVFQKLQGIWATIGAQIENLRTTSLQEVQDSDDADEIQIELEDASDAWLVVAQEARDFTLNAYSTNSRQNLPINVISDSCNCSTTNMTSNQYSNPTTNMTSNQYMISHEYTSLPNNFMLSRNSNLEYKCPENNFMIYWYNNSDWYNNSDWYNN
notes: Recombinant, produced in Pseudomonas fluorescens (standard) or in maize cells (Western blots)
In the case of B1, the binding result is “binds”.
